Target: SARS-CoV-2 spike receptor-binding domain (RBD), amino acids 333 to 529, bacteria-expressed and refolded (SARS-CoV-2, wild type (parental), UniProt P0DTC2)
Experiment: SPR
Conditions: both partners purified

B1: Sybody Sb68 (VHH)
VHH: QVQLVESGGGSVQAGGSLRLSCAASGSISSITYLGWFRQAPGKEREGVAALITVNGHTYYADSVKGRFTVSLDNAKNTVYLQMNSLKPEDTALYYCAAAAWGYAWPLHQDDYWYWGQGTQVTVSA
  Kd: 63 nM
